Measured values from the supplement of paper PMC10126150.
± gives the standard deviation of the averaged measurements.

Tested on: ATP
Assay: switch fluorescence ratio, 500 uM ATP over buffer (Cy3 cluster intensity, sum of 5 cycles each) (fold (ratio)); higher = stronger signal-on switching upon ATP binding; sequences stand for … in TCGTCGGCAGCGTCAGATGTGTATAAGAGACAGTTTTTTTTTTTTTTTTTTTTTTTTT…TC
Conditions: aptamer strand: ATP DNA aptamer (quencher-CACCTGGGGGAGTATTGCGGAGGAAGG + anchor), 100 nM annealed; ATP concentration: 500 uM
In short: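 For every switch-domain sequence, the fluorescence ratio is the mean of per-cluster values, each being summed target-cycle Cy3 intensity over summed buffer-cycle Cy3 intensity. Clusters outside 100-1000 RFU were excluded. On a modified Illumina MiSeq flow-cell, the Cy3-labelled switching-strand clusters were annealed to 100 nM quencher-labelled ATP aptamer, imaged in selection buffer and then after 15 min with 500 uM ATP at 22 °C. Five such cycles were run, with NaOH stripping and re-annealing between them.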
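Further: ATP exposure 15 min at 22 °C before imaging.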

Row | Sequence | switch fluorescence ratio
1 | ATGAAGTAGG | 0.989 ± 0.013
2 | TTTGAGAATT | 1.01 ± 0.032
3 | GCAAGGGTTG | 1.01 ± 0.022
4 | TAACGCCATC | 1.51 ± 0.035
5 | CTGTACGGGG | 1.02 ± 0.054
6 | TTACATTTTT | 1.05 ± 0.06
7 | TGTATTTTT | 0.98586 ± 0.00097
8 | TGCAGTATGG | 0.997 ± 0.019
9 | GTTATATTGA | 0.999 ± 0.026
10 | GCAGTTGTTC | 0.981 ± 0.037
11 | ATGGATAATG | 0.977 ± 0.054
12 | AGTTAGGGCG | 1.04 ± 0.058
13 | CTTACGTCTG | 1.01 ± 0.015
14 | TCGGGACGTT | 1.02 ± 0.044
15 | ATATGAAGGG | 1 ± 0.032
16 | TGTAGGGGAA | 0.996 ± 0.011
17 | GGTTTGGGCT | 0.983 ± 0.051
18 | GATTCGGGGA | 0.999 ± 0.014
19 | TATTGCGGCC | 1.02 ± 0.026
20 | TTAATACCGC | 1.12 ± 0.022
21 | TGGGAGGGGA | 1.03 ± 0.035
22 | AAGTAGAGTG | 0.9834 ± 0.0013
23 | TTGATAGCTT | 0.998 ± 0.018
24 | AAAGCTGCCA | 1.004 ± 0.0056
25 | TAAAATACA | 0.983 ± 0.019

Row | Sequence | switch fluorescence ratio
26 | TAAGGCAAGG | 1.03 ± 0.021
27 | AAGTTTTGGA | 1.02 ± 0.025
28 | TCAGCTCCGT | 1.08 ± 0.025
29 | TCCAGATTTT | 1 ± 0.012
30 | TGGAATGGGG | 1 ± 0.037
31 | TTAGTCCACT | 1.0047 ± 0.001
32 | ACAATCCGGG | 1.01 ± 0.032
33 | TAAAGATTTT | 1.01 ± 0.041
34 | CGAGAATTGT | 0.9301 ± 0.0053
35 | CAAGATGGGA | 0.963 ± 0.082
36 | CCATTCTAGA | 1.012 ± 0.0013
37 | AACTATGGTA | 0.992 ± 0.033
38 | GGCTTGCCTC | 1.023 ± 0.0069
39 | ACGGAGGATT | 1.04 ± 0.04
40 | TTGTTTTCTG | 1.02 ± 0.047
41 | AATTGGGCTT | 1.02 ± 0.043
42 | GGGGTGTGAG | 0.989 ± 0.017
43 | CTTAGGGGAT | 1.03 ± 0.047
44 | AGAGAAGGGA | 1.002 ± 0.0071
45 | TATAATTTTT | 1.03 ± 0.074
46 | AAAGATAATG | 1.003 ± 0.0091
47 | TCAGGGGTTG | 1.09 ± 0.17
48 | TTAGAGAACC | 1.01 ± 0.016
49 | GGAAAGAGTT | 1.07 ± 0.056
50 | ATATGTTGAA | 1.02 ± 0.027

Row | Sequence | switch fluorescence ratio
51 | TATGGTTTGG | 0.987 ± 0.028
52 | GGGGTGGCGT | 1.07 ± 0.1
53 | TGGGGGCATT | 1.01 ± 0.033
54 | CGCGGAGGGT | 0.967 ± 0.016
55 | TTGTGTGTAT | 0.992 ± 0.017
56 | TTTTTATGGA | 1.03 ± 0.027
57 | AGTAGGGGGT | 1.01 ± 0.022
58 | AGGTTGTGGG | 1.02 ± 0.022
59 | CAGCTATTTA | 1.02 ± 0.025
60 | ATGGTGTGGG | 1.03 ± 0.021
61 | TAGGGGGGTT | 1 ± 0.04
62 | GGGTCGGGAA | 1.006 ± 0.0032
63 | GTCTATATGG | 0.997 ± 0.032
64 | ATCATTCCTC | 1.573 ± 0.011
65 | TCGGATTGGG | 0.993 ± 0.033
66 | GGTATTCAGG | 1.03 ± 0.018
67 | AGGTCGATCC | 0.993 ± 0.05
68 | AGCTACGTTT | 0.9963 ± 0.0053
69 | GATGATGGAG | 1.02 ± 0.011
70 | TTGGAATCGA | 1.06 ± 0.035
71 | CAGGTTGTGG | 0.992 ± 0.024
72 | GGGTCATTGT | 1.03 ± 0.032
73 | ATTCTTGAGA | 0.988 ± 0.034
74 | TCAAGAGCTG | 1.08 ± 0.072
75 | TATTGGGTAA | 1.11 ± 0.14

Row | Sequence | switch fluorescence ratio
76 | TTAGTTGGGT | 1.002 ± 0.008
77 | CCATTAGTTG | 0.998 ± 0.02
78 | TGCTCAGCTG | 1.04 ± 0.026
79 | GGCATTTTTC | 0.999 ± 0.021
80 | TAAAAGCTGA | 0.989 ± 0.042
81 | CGGCGTCGGG | 1 ± 0.032
82 | AACACAGCTC | 1.02 ± 0.024
83 | GCGTTTATGT | 0.953 ± 0.025
84 | GAAATGGTAT | 1 ± 0.011
85 | GCCGGGGTTA | 0.9966 ± 0.0088
86 | TTGCGACACC | 1.06 ± 0.042
87 | CTAAGCCCGG | 1 ± 0.011
88 | CTCTGAGGAG | 1.04 ± 0.035
89 | ACAATTGCTA | 0.994 ± 0.03
90 | TGGAGGGGGG | 0.997 ± 0.086
91 | AGTTACCCGA | 1.04 ± 0.011
92 | TCTTTTTGCA | 1.03 ± 0.014
93 | AACTCACTTT | 1.09 ± 0.02
94 | GTAGTAAGGC | 2.23 ± 0.54
95 | AATGCTGGTT | 1.01 ± 0.015
96 | GGGACCGTAT | 1 ± 0.023
97 | AAGGTTGGGT | 0.984 ± 0.031
98 | CAGATGGACG | 0.968 ± 0.032
99 | TGGGCTACTC | 1.1 ± 0.044
100 | TATTGGGATA | 1.01 ± 0.027

Row | Sequence | switch fluorescence ratio
101 | CATCGATTGT | 1 ± 0.019
102 | TTATAGGGTA | 1 ± 0.017
103 | CCTGGCGATG | 1.38 ± 0.053
104 | GATCTTATTC | 0.98506 ± 0.00068
105 | GTGGACAACG | 0.9924 ± 0.0099
106 | TTCGATTACG | 1.03 ± 0.018
107 | TTTCGGGGGG | 1.02 ± 0.037
108 | GGTAATTGCG | 0.99 ± 0.022
109 | TAAGGACAGG | 1.047 ± 0.0049
110 | GTTAGGGGCA | 1 ± 0.072
111 | AGGCTAAAG | 0.974 ± 0.01
112 | GCTATAGTGT | 0.992 ± 0.021
113 | GGTATTTATT | 1.01 ± 0.019
114 | AAGGCGCGTG | 1.01 ± 0.045
115 | TCGGAATTGC | 1.56 ± 0.33
116 | GCGTAAGCAG | 0.981 ± 0.012
117 | AAATCCGGTT | 1.008 ± 0.0028
118 | TCCTAGGTGT | 4 ± 0.28
119 | GGCGCTTCGG | 0.967 ± 0.05
120 | AATTTTTTCG | 0.992 ± 0.025
121 | GGTGTATGGG | 1.01 ± 0.014
122 | ACTGGAAGTC | 0.9875 ± 0.0088
123 | TAATGGCTT | 1.003 ± 0.0022
124 | TTCATGTCAT | 1.01 ± 0.081
125 | GGTAACCGCT | 1.01 ± 0.03

Row | Sequence | switch fluorescence ratio
126 | TCCGAAACAT | 1.575 ± 0.011
127 | GCCTGAAGGG | 1 ± 0.014
128 | TGATATTTTA | 0.986 ± 0.035
129 | AGCATATCGT | 1.04 ± 0.033
130 | ATGTGTGGGG | 1.01 ± 0.063
131 | AGAGTTTTGG | 0.979 ± 0.025
132 | GTAAAGAAAA | 1.05 ± 0.081
133 | CCGGATATGT | 1.08 ± 0.046
134 | GCACTCAGGA | 1.03 ± 0.04
135 | GGCGGAACGT | 1 ± 0.023
136 | TTGTGCTTGT | 0.983 ± 0.019
137 | TGGGACTTGG | 1.01 ± 0.018
138 | GGTATCACGG | 0.9912 ± 0.0045
139 | TAGGTGAGTT | 1.04 ± 0.047
140 | CTAATAGTTT | 1 ± 0.032
141 | TATTGTACTC | 1.03 ± 0.018
142 | TCGTGCTTTG | 1.0145 ± 0.00045
143 | CTTTTAGGA | 0.995 ± 0.021
144 | GAGAGAATGG | 0.994 ± 0.0043
145 | GTGCTACGTG | 0.966 ± 0.059
146 | CTAATTTGCT | 1.04 ± 0.056
147 | GGTCTTACCA | 0.98367 ± 0.00036
148 | ATCGTGTATC | 1.06 ± 0.0081
149 | GGGGGAGCGT | 1 ± 0.03
150 | AGCTGGGAAG | 0.982 ± 0.021

Row | Sequence | switch fluorescence ratio
151 | AGAGAGAGTT | 0.974 ± 0.032
152 | CAAGGATACA | 1 ± 0.034
153 | TCGTGATTTT | 1 ± 0.035
154 | CGTTTCAAGG | 0.975 ± 0.016
155 | TGCTCTACGG | 1 ± 0.018
156 | AAAGACATGG | 0.989 ± 0.017
157 | CGTAAATATA | 1.03 ± 0.015
158 | AGCGTCATGC | 1.04 ± 0.048
159 | TCGGCTTCCT | 1.27 ± 0.031
160 | GGGGCGGACG | 0.995 ± 0.047
161 | TGTAGTTTGT | 0.973 ± 0.034
162 | CGAGGATGTG | 0.964 ± 0.035
163 | AGTTTCGCTA | 0.992 ± 0.024
164 | CCTTAGTGAC | 1.36 ± 0.069
165 | GTCAGTGAAT | 0.988 ± 0.057
166 | TCAGAAAGGG | 1.021 ± 0.0059
167 | CAGTTTTCCC | 1.01 ± 0.016
168 | ACGGAGAGGC | 1.14 ± 0.22
169 | ATCGCTTGAG | 0.9725 ± 0.0034
170 | AAATGTGGGG | 0.976 ± 0.049
171 | TGGAAGCGGG | 1.04 ± 0.07
172 | TGGGTTGGCC | 0.99 ± 0.043
173 | TTCCGTTTTT | 1.51 ± 0.66
174 | ATACTTTGGT | 0.9944 ± 0.0018
175 | TGCATGTAGG | 1.01 ± 0.034

Row | Sequence | switch fluorescence ratio
176 | TTGGAGCACG | 1.03 ± 0.049
177 | ATATATGGTG | 1.05 ± 0.02
178 | AATAGAGGTT | 0.965 ± 0.02
179 | TGAATGAATT | 0.997 ± 0.022
180 | ACTTTTGGCG | 1 ± 0.071
181 | CGAAGGATTG | 0.992 ± 0.015
182 | TGAGGGCCGA | 1.02 ± 0.13
183 | AAAAGGACGT | 0.962 ± 0.0056
184 | AGAATTGAGG | 0.979 ± 0.016
185 | TTTTTCAGCC | 1.01 ± 0.046
186 | ACCTTTTGTG | 0.9903 ± 0.0046
187 | GACTGTACTA | 1.48 ± 0.075
188 | TGGGGTATAA | 1.001 ± 0.0042
189 | AGGTTAACTA | 1.02 ± 0.024
190 | TCGAAGGGGT | 0.982 ± 0.013
191 | TTGCCGCACG | 1.15 ± 0.024
192 | TTGCAATTGG | 2.56 ± 2
193 | CTTTGTCTTA | 0.999 ± 0.05
194 | AAAGTTTCTC | 1 ± 0.032
195 | GGGATCCTTG | 1 ± 0.022
196 | GGGTTAATTG | 0.983 ± 0.017
197 | GGGTATACAG | 1.01 ± 0.053
198 | CTGAACTGTG | 0.989 ± 0.11
199 | ACGGTTTAAT | 1.04 ± 0.029
200 | AGTTTTATCC | 1.006 ± 0.0052
